Reference: publication PMC4526890, “Crystal structures of Mycobacterium tuberculosis GlgE and complexes with non-covalent inhibitors” (Scientific Reports, 2015)

Biological target: T1, Mycobacterium tuberculosis GlgE (Mycobacterium tuberculosis), P9WQ17
T1 chain: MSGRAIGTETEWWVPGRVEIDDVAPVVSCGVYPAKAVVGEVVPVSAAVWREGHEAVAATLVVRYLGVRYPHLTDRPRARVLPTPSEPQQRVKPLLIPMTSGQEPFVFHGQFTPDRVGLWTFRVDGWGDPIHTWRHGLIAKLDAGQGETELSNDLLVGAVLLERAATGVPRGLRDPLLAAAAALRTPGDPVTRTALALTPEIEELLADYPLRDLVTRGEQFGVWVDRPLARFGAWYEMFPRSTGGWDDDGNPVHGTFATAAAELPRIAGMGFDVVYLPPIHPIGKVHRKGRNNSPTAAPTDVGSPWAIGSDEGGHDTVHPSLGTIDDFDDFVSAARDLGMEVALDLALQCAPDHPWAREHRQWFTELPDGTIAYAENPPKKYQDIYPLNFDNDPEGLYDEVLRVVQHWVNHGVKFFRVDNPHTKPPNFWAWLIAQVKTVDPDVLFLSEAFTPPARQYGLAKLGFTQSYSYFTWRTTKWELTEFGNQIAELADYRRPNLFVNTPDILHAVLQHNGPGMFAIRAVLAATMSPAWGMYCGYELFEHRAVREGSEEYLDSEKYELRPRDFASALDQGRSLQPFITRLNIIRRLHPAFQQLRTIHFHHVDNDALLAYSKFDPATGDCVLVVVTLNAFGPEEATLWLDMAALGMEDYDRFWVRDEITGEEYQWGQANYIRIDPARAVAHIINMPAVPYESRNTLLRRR
Test: crystal structure; Mtb GlgE co-crystallised with 10 mM maltose (hanging drop, 0.1 M HEPES pH 7.5, 1.0 M ammonium formate), 3.3 Å; the same crystals soaked with 10 mM maltohexaose, 4.0 Å; homodimer seen in the crystal
Details: remark: other sources report otherwise

B1: Mycobacterium tuberculosis GlgE, P9WQ17 1-701 (enzyme)
chain: T1 chain
stoichiometry N: 2
